3 molecules from patent US20230331848A1 (BIOSION, published 2023) can be followed below.

The target of test [1] is T1, human PD-1 expressed on GS-J2/PD-1 cells (Genscript) (human, UniProt Q15116 25-288). Put plainly: cell-based or functional assay.
Test [2] has as its target T2, recombinant human PD-1-his protein (Cat#:10377-H08H, Sino biological Inc.) (human, UniProt Q15116 25-167).
T2 construct: Bought protein used as analyte in the Biacore tests; not shown: his tag
Put plainly: SPR (Biacore), Example 9. (SPR reads the build-up and loss of mass on a sensor chip optically.)

Test [3] deals with T3, cynomolgus PD-1-his protein (Cat#:PD1-05223, Acro biosystems Inc.) (cynomolgus, UniProt B0LAJ3 25-170).
T3 construct: Bought protein used in Biacore and indirect ELISA; also called monkey PD-1; Cyno PD-1
Put plainly: SPR (Biacore), Example 9.

The target of test [4] is T4, recombinant mouse PD-1-his protein (Cat#:50124-M08H, Sino Biological Inc) (mouse, UniProt Q02242 25-167).
T4 construct: Bought protein used in Biacore and indirect ELISA; not shown: his tag
T4 sequence (looked up): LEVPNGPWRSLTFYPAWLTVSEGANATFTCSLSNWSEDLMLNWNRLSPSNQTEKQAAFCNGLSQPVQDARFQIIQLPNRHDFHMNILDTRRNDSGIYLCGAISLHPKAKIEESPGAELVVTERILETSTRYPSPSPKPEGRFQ
Briefly: SPR (Biacore), Example 9.

Test [5] addresses T1, human PD-1 expressed on GS-J2/PD-1 …. Briefly: flow cytometry on GS-J2/PD-1 cells. As for the experimental part:
In specific, the 293F-mouse PD-1 cells and GS-J2/PD-1 cells were respectively harvested from cell culture flasks, washed twice and re-suspended in PBS containing 2% v/v Fetal Bovine Serum (FACS buffer). Then, 2×10⁵ cells per well were incubated in 96 well-plates with 100 μl of the anti-PD1 antibodies or controls at various concentrations for 40 minutes on ice. […] Following an incubation of 40 minutes at 4° C. in dark, cells were washed three times and re-suspended in FACS buffer. Fluorescence was measured using a Becton Dickinson FACS Canto II-HTS equipment and plotted against antibody concentrations. Data was analyzed using GraphPad Prism software and EC₅₀ values were reported.
For the cell-based binding FACS, R-Phycoerythrin AffiniPure Goat Anti-human IgG Fcγ fragment specific (Cat#:109-115-098, Jackson ImmunoResearch) was used for the humanized antibodies, with 1:1000 dilution in FACS buffer, 100 μl/well.
For orientation: Flow cytometry measures light scatter and fluorescence of single cells or particles in a stream.

The target in test [6] is T3, cynomolgus PD-1-his protein …. Put plainly: indirect ELISA on coated cynomolgus PD-1-his. (An ELISA detects its analyte on a solid surface through an enzyme-linked reagent.)
The target in test [7] is T5, human PD-1-his protein prepared in-house (human, UniProt Q15116 25-167, biotin-labeled (sites not given)).
T5 construct: also called biotin labeled human PD-1-his
Briefly: capture ELISA, antibody captured, biotin human PD-1-his detected. As for the experimental part:
Briefly, 96-well micro plates were coated with 100 μl 2 μg/ml AffiniPure Goat Anti-Mouse IgG F(ab′)₂ fragment specific (Cat#:115-005-072, Jackson lmmunoResearch) or Goat-anti-human IgG (Cat#:109-005-097, Jackson ImmunoResearch, for the positive control and negative control) in PBS overnight at 4° C. Plates were washed once with wash buffer (PBST, PBS+0.05% Tween-20) and then blocked with 200 μl/well blocking buffer (5% w/v non-fatty milk in PBST) for 2 hours at 37° C. […] After a final wash, plates were incubated with 100 μl/well TMB (Cat#:TMB-S-002, Innoreagents) at room temperature.
For the capture ELISA, 96-well plates were coated with 100 μl 2 μg/ml AffiniPure Goat Anti-Human IgG, Fcγ fragment specific (Cat#:109-005-098, Jackson Immunoresearch) instead of AffiniPure goat-anti-mouse IgG F(ab′)₂ fragment specific.

Test [8] addresses T6, in house made human PD-1-Fc protein (human, biotin-labeled (sites not given)).
T6 construct: also called biotin-labeled human PD-1-Fc
Put plainly: competitive ELISA: biotin human PD-1-Fc + antibody on coated human PD-L1-Fc (competitor). As for the experimental part: Briefly, 100 μl human PD-L1-Fc protein (prepared in-house with SEQ ID NO: 28) at 2 μg/mL in carbonate/bicarbonate buffer (pH 9.6) was coated on 96-well micro plates overnight at 4° C., Plates were washed with wash buffer (PBS+0.05% w/v Tween-20, PBST), and blocked with 5% w/v non-fatty milk in PBST for 2 hours at 37° C. […] After incubation at 37° C. for 40 minutes, plates were washed using wash buffer. […] Plates were washed again using wash buffer. Finally, TMB was added and the reaction was stopped using 1M H₂SO₄. The absorbance was read on a microplate reader using dual wavelength mode with 450 nm for TMB and 630 nm as the reference wavelength, then the OD (450-630) values were plotted against antibody concentrations. Data was analyzed using Graphpad Prism software and IC₅₀ values were reported.

In test [9] the target is T5, human PD-1-his protein prepared in-house. Briefly: competitive ELISA: biotin human PD-1-his + antibody on coated Pembrolizumab (competitor). As for the experimental part: ELISA plates were washed once with wash buffer (PBST, PBS+0.05% Tween-20) and then blocked with 200 μl/well blocking buffer (5% w/v non-fatty milk in PBST) for 2 hours at 37° C. […] After incubation at 37° C. for 40 minutes, plates were washed using wash buffer, added and incubated with 100 μl/well Peroxidase Streptavidin for 40 minutes at 37° C. Plates were washed again using wash buffer. Finally, TMB was added and the reaction was stopped using 1M H₂SO₄. The absorbance was read on a microplate reader using dual wavelength mode with 450 nm for TMB and 630 nm as the reference wavelength, and the OD (450-630) values were plotted against antibody concentrations. Data was analyzed using Graphpad Prism software and IC₅₀ values were reported.

Test [10] concerns the target T7, human PD-1-his protein (Cat#:PD1-H5221, Acro biosystems Inc.) (human, UniProt Q15116 25-167).
T7 construct: not shown: his tag
Briefly: BLI (Octet RED96), supernatant antibody captured on AHC sensor, human PD-1-his in solution, 1:1 fit. As for the experimental part:
(§1) Briefly, AHC biosensors (anti-human IgG Fe capture, from ForteBio) were presoaked with 10 mM glycine (pH 1.5) for 3 seconds, and then dipped in a well with running buffer (0.5% w/v BSA in PBST) for 3 seconds, the soaking and dipping steps were repeated for three times. […] A new baseline was run for 100 seconds in another well with running buffer. Then the sensors were dipped in a well with serially diluted human PD-1-his protein (Cat#:PD1-H5221, Acro biosystems Inc., starting at 100 nM with a two-fold serial dilution) in running buffer for 120 seconds, and then immersed in a baseline well for […]. Finally, sensors were presoaked with 10 mM glycine (pH 1.5) for 30 seconds, and then were dipped in a well with running buffer for 30 seconds. The association and dissociation curves were fit to a 1:1 Langmuir binding model using ForteBio Data Analysis 8.1 evaluation software.

For test [11], the target named is T6, in house made human PD-1-Fc protein. Briefly: blocking FACS: biotin human PD-1-Fc + antibody on GS-C2/PD-L1 cells (competitor: cell-surface human PD-L1). As for the experimental part: GS-C2/PDL1 cells were harvested from cell culture flasks at the log phase, washed twice and re-suspended in PBS containing 2% v/v Fetal Bovine Serum (FACS buffer). GS-C2/PD-L1 cells, 0.6×10⁵ cells per welt, were incubated in 96 well-plates with 100 the antibody/PD1-Fc mixture for 40 minutes at 4° C. Cells were washed twice with FACS buffer, added with 100 R-Phycoerythrin Streptavidin (1:500 dilution in FACS buffer, Cat#:016-110-084, Jackson Immunoresearch), and incubated for 40 minutes at 4° C. in dark. Cells were washed twice and re-suspended in FACS buffer. Fluorescence was measured using a Becton Dickinson FACS Canto II-HTS equipment. Data was analyzed using Graphpad Prism software and IC₅₀ values were reported.

For test [12], the target named is T1, human PD-1 expressed on GS-J2/PD-1 …. Put plainly: cell-based binding FACS on GS-J2/PD-1 cells expressing human PD-1 (MFI); unit from the axis 'Con of mAb, nM.'.
The target of test [13] is T2, recombinant human PD-1-his protein …. Put plainly: SPR (Biacore), protocol of Example 2.
Test [14] has as its target T4, recombinant mouse PD-1-his protein …. Put plainly: SPR (Biacore), protocol of Example 2.
Test [15] has as its target T7, human PD-1-his protein (Cat#:PD1-H5221, …). Briefly: BLI (Octet RED96), antibody captured on AHC sensor, human PD-1-his in solution, 1:1 fit. As for the experimental part: as §1
Test [16] shares this target. Put plainly: BLI (Octet RED96), antibody captured on AHC sensor, human PD-1-his in solution, 1:1 fit (second run). As for the experimental part:
as §1

B1: humanized antibody huE1A9C8A7-V8 (antibody, human IgG4 S228P, kappa, V domains shown)
VH: QVQLVQSGAEVVKPGASVKISCKASGYTFTDYVMHWVRQAPGQSLEWMGVISTYHIPAVYNQKFKGKATMTVDTSTSTVYLELSSLRSEDTAVYYCAREVYGDSYYFDVWGQGTTVTVSS
VL: DIVMTQTPLSLPVTPGEPASISCRSSQSIVHSNGNTYLEWYLQKPGQSPQLLIYKVSNRFSGVPDRFSGSGSGTDFTLKISRVEAEDVGVYYCFQGSHVPYTFGGGTKVEIKR
notes: Human IgG4/kappa
In the case of B1, the “Cell-based functional assay (EC50, nM)” value in test [1] turned out to be 5.13 nM. The Kd in [2] was 634 pM; in [3] it was 1340 pM; in test [4], 380000 pM; in test [10] it was 1130 pM. For the same molecule, the koff in [2] was 0.000593 s⁻¹; in test [3], 0.000484 s⁻¹; in test [4], 0.0182 s⁻¹; in [10], 0.000291 s⁻¹. The kon in test [2] amounted to 934000 M⁻¹ s⁻¹; in [3], 361000 M⁻¹ s⁻¹; in test [4] it was 47900 M⁻¹ s⁻¹; in [10], 258000 M⁻¹ s⁻¹. The EC50 is 630 pM in [5], 820 pM in test [6], 210 pM in test [7] and 461 pM in test [12]. For the same molecule, the results for the IC50 in test [8], in test [9] and in test [11] were 330 pM, 510 pM and 550 pM, respectively.

B2: humanized antibody huE1A9C8A7-V8-3 (antibody, human IgG4 S228P, kappa, V domains shown)
VH: QVQLVQSGAEVVKPGASVKISCKASGYTFTDYVMHWVRQAPGQSLEWMGVISTYHIPAVYNQKFKGKATMTVDTSTSTVYLELSSLRSEDTAVYYCAREVYGESYYFDVWGQGTTVTVSS
VL: DIVMTQTPLSLPVTPGEPASISCRSSQSIVHSAGNTYLEWYLQKPGQSPQLLIYKVSNRFSGVPDRFSGSGSGTDFTLKISRVEAEDVGVYYCFQGSHVPYTFGGGTKVEIKR
notes: huE1A9C8A7-V8 modified in VH CDR3 (D to E) and VL CDR1 (N to A)
Take B2: in test [2], the Kd was found to be 382 pM, the koff was 0.00041 s⁻¹ and the kon came to 1.07e+06 M⁻¹ s⁻¹. In test [3], this molecule displayed a Kd of 722 pM, a koff of 0.000332 s⁻¹ and a kon of 461000 M⁻¹ s⁻¹. Besides, in test [4], the Kd turned out to be 244000 pM, the koff amounted to 0.0167 s⁻¹ and the kon was found to be 64800 M⁻¹ s⁻¹. Besides, the EC50 in [12] was found to be 451 pM.

B3: Chimeric E1A9C8A7 antibody (antibody, human IgG4 S228P, kappa, V domains shown)
VH: QVQLQQSGAEVVRPGVSVRISCKGSGYTFSDYVMHWMKQSHGESLEWIGVISTYHIPAVYNQKFKGKATMTVDKSSSTVYLELARLTSEDSAIYYCAREVYGDSYYFDVWGAGTTVTVSS
VL: DVLMTQIPLSLPVSLGDQVSISCRSSQSIVHSNGNTYLEWYLQKPGQSPKLLIYKVSNRFSGVPDRFSGSGSGTDFTLKISRVEAEDLGVYYCFQGSHVPYTFGGGTKLEIKR
notes: also called chimeric antibody E1A9C8A7
As for B3, in [1], the “Cell-based functional assay (EC50, nM)” value turned out to be 7.45 nM. The EC50 in test [5] turned out to be 670 pM; in test [6], 850 pM; in [7] it was 210 pM. Further, the Kd in test [13] was found to be 1110 pM; in test [14] it was 162000 pM; in test [15] it was 1320 pM; in test [16], 2180 pM. Besides, the koff in test [13] amounted to 0.000645 s⁻¹; in test [14] it was 0.027 s⁻¹; in [15] it was 0.000316 s⁻¹; in [16], 0.000597 s⁻¹. In addition, the kon is 580000 M⁻¹ s⁻¹ in test [13], 167000 M⁻¹ s⁻¹ in [14], 239000 M⁻¹ s⁻¹ in [15] and 274000 M⁻¹ s⁻¹ in test [16]. Moreover, the half-maximal inhibitory concentration (IC50) worked out at 380 pM in test [8], 610 pM in test [9] and 570 pM in [11].

What is called Kd is the equilibrium constant for the complex coming apart. Usually koff stands for the first-order rate constant of dissociation. What is called kon is the second-order rate constant of association. One may read the EC50 as the concentration at which the effect is half-maximal. The low end stands for a more potent agent, the high end for a less potent agent. For orientation: IC50 means the point on the concentration scale where inhibition reaches its midpoint.
